These are literature values, as cited in article PMC10955226.

This data set concerns the target WWC1 WW tandem (Homo sapiens) (UniProt Q8IX03).
UniProt Q8IX03, sequence (Q8IX03 6-86): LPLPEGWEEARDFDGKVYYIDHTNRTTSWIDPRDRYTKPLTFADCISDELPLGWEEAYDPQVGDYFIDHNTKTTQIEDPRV

A word on the Kd: it is the equilibrium constant for the complex coming apart. Turning to JCAD PPxY motifs (from UniProt Q9P266), the dissociation constant Kd was 58 nM.
